Experimental data taken from US20250043017A1.

How the values were obtained:
[1] = target: human 4-1BB expressed with a C-terminal myc-myc-hexahistidine tag (h4-1BB.mmH) (human); assay: blocking ELISA, 0.25 nM h4-1BB-mmh binding to coated 6His-Flag-h4-1BBL
[2] = target: human PD1 on Jurkat/AP1-luc/hPD1 cells (human) (UniProt Q15116); assay: cell-based or functional assay
human PD1 on Jurkat/AP1-luc/hPD1 cells (human), sequence (Q15116 25-288): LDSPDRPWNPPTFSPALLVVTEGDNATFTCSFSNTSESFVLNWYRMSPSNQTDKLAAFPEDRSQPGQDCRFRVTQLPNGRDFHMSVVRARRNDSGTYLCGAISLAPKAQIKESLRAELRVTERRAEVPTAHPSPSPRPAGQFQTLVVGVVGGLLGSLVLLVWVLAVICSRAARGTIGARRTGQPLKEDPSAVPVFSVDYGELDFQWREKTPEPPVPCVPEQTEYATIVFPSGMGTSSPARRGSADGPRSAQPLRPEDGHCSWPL

human 4-1BB expressed with a C-terminal myc-myc-hexahistidine tag (h4-1BB.mmH) (human), sequence (chain, as listed by the source limits assumed): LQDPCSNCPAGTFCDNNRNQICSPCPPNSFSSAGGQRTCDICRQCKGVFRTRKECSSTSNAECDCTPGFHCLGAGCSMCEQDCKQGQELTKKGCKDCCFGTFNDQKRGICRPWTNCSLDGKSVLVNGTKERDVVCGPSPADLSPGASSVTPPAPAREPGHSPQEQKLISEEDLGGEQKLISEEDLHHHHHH

Binder	% Blocking at 100 nM mAb [1]	AP-1 luciferase EC50, Jurkat/AP1-luc/hPD1 + WSU-DLCL2/hPD-L1 + CD20xCD3 [2]	AP-1 luciferase MAX (RLU), Jurkat/AP1-luc/hPD1 + WSU-DLCL2/hPD-L1 + CD20xCD3 [2]
Comparator 1 (antibody, INN chains, looked up, V domains shown) VH: EVQLVQSGAEVKKPGESLRISCKGSGYSFSTYWISWVRQMPGKGLEWMGKIYPGDSYTNYSPSFQGQVTISADKSISTAYLQWSSLKASDTAMYYCARGYGIFDYWGQGTLVTVSS VL: SYELTQPPSVSVSPGQTASITCSGDNIGDQYAHWYQQKPGQSPVLVIYQDKNRPSGIPERFSGSNSGNTATLTISGTQAMDEADYYCATYTGFGSLAVFGGGTKLTVLG	72%	–	–
REGN2810 (antibody, INN chains, looked up, V domains shown) VH: EVQLLESGGVLVQPGGSLRLSCAASGFTFSNFGMTWVRQAPGKGLEWVSGISGGGRDTYFADSVKGRFTISRDNSKNTLYLQMNSLKGEDTAVYYCVKWGNIYFDYWGQGTLVTVSS VL: DIQMTQSPSSLSASVGDSITITCRASLSINTFLNWYQQKPGKAPNLLIYAASSLHGGVPSRFSGSGSGTDFTLTIRTLQPEDFATYYCQQSSNTPFTFGPGTVVDFR	–	0.29 nM	1.1e+06 RLU
